# Measured values taken from US7256321B2, “Intracellular modulators of apoptopic cell death pathways” (Applied Research Systems ARS Holding N.V., priority 1997, dated 2007).
# What was measured:
# Type in all cases: cell-based, mouse
# IL-2R = IL-2R (CD25) expression on 3DO transfected clones (flow cytometry); conditions: overexpression of GILR in transfected 3DO clones
# Description: For that purpose, GILR transfected clones were activated and analyzed for apoptosis and expression of activation markers, like the interleukin-2 receptor (IL-2R). In particular, after stimulation with cross-linked anti-CD3 monoclonal antibodies (1 μg/ml), GILR-transfected and empty vector clones (used as control) were stained with anti-IL-2R monoclonal antibody (CD25) or treated for propidium iodide labeling for apoptosis evaluation. The supernatants from control and anti-CD3-treated clones were used for IL-2 detection in an ELISA assay.
# 3DO transfected clones [1] = test: Apoptosis induced by other stimuli on 3DO transfected clones; conditions: GILR overexpression in 3DO clones GILR/1,5,7 vs pcDNA3/4,7,8, 20 hours
# Description: FIGS. 7A-7D are bar-graph representations of the results of the analysis of apoptosis induced by other stimuli on 3DO transfected clones, wherein in FIG. 7A is shown the results obtained with withdrawn trophic factor; in FIG. 7B is shown the results obtained with u.v. irradiation (100 J/m2); in FIG. 7C is shown the results obtained with DEX ([…]); and in FIG. 7D is shown the results obtained with monoclonal (mAb) anti-Fas antibody (5 μg/ml). All groups were treated for 20 hours. Cell death was measured as indicated above with respect to FIG. 6, and as noted herein below. […]
# Aliquots of2 ml transfected clones (1×10^6/ml) were incubated with DEX or subjected to deprivation conditions (1% FCS). The apoptosis was evaluated after 20 hours as described below.
# (§1) Apoptosis was measured by flow cytometry as described elsewhere (Nicoletti et al., 1991). […] The PI-fluorescence of individual nuclei was measured by flow cytometry using standard FACScan equipment (Becton Dickinson). […] A 560 nm dichroid mirror (DM 570) and a 600 nm band pass filter (band width 35 nm) were used to collect the red fluorescence due to PI DNA staining. The data were recorded in logarithmic scale in a Hewlett Packard (HP 9000, model 310; Palo Alto, Calif.) computer. The percentage of apoptotic cell nuclei (sub-diploid DNA peak in the DNA fluorescence histogram) was calculated with specific FACScan research software (Lysis II).
# 3DO transfected clones [2] = test: Anti-CD3-induced apoptosis of 3DO transfected clones (propidium iodide flow cytometry); conditions: GILR expression in transfected 3DO clones
# Description: Thymocytes were obtained from 3 to 5-week-old C3H/HeN mice purchased from Charles River (Milan, Italy). The cell suspensions were washed, filtered and adjusted to a concentration of 8×10^6 cells/ml in complete medium. The cells were incubated at 37° C. alone or with 100 nM/l DEX (Sigma, St. Louis, Mo.) for 3 hrs. A CD3+, CD4+, CD2+, CD44+ sub-line obtained in our laboratory of the OVA-specific mouse hybridoma T cell line (3DO; Ayroldi et al., 1995) maintained in suspension in RPMI 1640 medium supplemented with 10% FCS and […] HEPES buffer was used for transfection experiments. […]
# The GILR cDNA coding sequence (874 bp—see FIG. 2) was cloned into a pcDNA3 plasmid (Invitrogen) for expression in mammalian cells. […] These surviving cells were considered clones and analyzed in an RNase protection assay for the expression of exogenous GILR (Vito et al., 1996). […]
# as §1, with “The percentage of apoptotic cell nuclei (sub-diploid DNA peak in the DNA fluorescence histogram) was calculated with specific FACScan research software (Lysis II).” left out
# [3] = system: Fas/Fas-L expression on 3DO transfected clones; test: Fas and Fas-L expression on 3DO transfected clones (flow cytometry); conditions: GILR expression in transfected 3DO clones
# Description: Hamster anti-mouse CD3ε (clone 145-2C11; Pharmingen, San Diego, Calif.) mAb at 1 μg/well (=1 μg/ml of anti-CD3 antibody) was allowed to adhere to flat-bottomed, high-binding 96-well plates (Costar, Cambridge, Mass.) at 4° C. in 100 μl PBS. After 20 hours, plates coated with mAb were washed and transfected clones were plated at 1×10^5 cells/well and incubated at 37° C. for 20 hours. Isotype-matched rat anti-mouse IgG 2b mAbs (clone R 35-38, Pharmingen) were used a control.
# A single suspension (1×10^6cells/sample) was incubated for 30 minutes on ice in 50 μl staining buffer (PBS plus 5% FCS), containing 10 μg/ml hamster anti-mouse Fas mAb directly conjugated to R-phycoerythrin (PE) or PE-hamster IgG (isotype control).
# Both mAbs were purchased from Pharmingen. Cells were also stained with rabbit polyclonal antibody raised against a peptide corresponding to amino acids 260-279 mapping at the carboxy terminus of human Fas-L (Santa Cruz Biotechnology, Inc., Santa Cruz, Calif.) or with isotype-matched antibody (ab), and with anti-rabbit IgG FITC conjugate, F(ab′)2 fragment (Sigma), as a second step reagent.
# All clones were stained with hamster anti-mouse αCD3, directly conjugated with fluorescein (Pharmingen). The median or percentage of Fas and Fas-L histograms was calculated using lysis II research software (Becton-Dickinson, Mountain View, U.S.A.).
molecule,measurement,setting,value
"GILR: Glucocorticoid Induced Leucine-zipper family Related protein, 137 amino acids (mouse), overexpressed from GILR cDNA in pcDNA3 (protein) MNTEMYQTPMEVAVYQLHNFSTSFFSSLLGGDVVSVKLDNSASGASVVALDNKIEQAMDLVKNHLMYAVREEVEVLKEQIRELLEKNSQLERENTLLKTLASPEQLEKFQSRLSPEEPAPEAPETPETPEAPGGSAV","anti-CD3 induced activation (IL-2R, IL-2)",IL-2R,inhibits
same,"apoptosis induced by DEX, UV irradiation, starvation or crosslinked anti-Fas monoclonal antibody",3DO transfected clones [1],does not counteract
same,TCR/CD3-activated apoptosis,3DO transfected clones [2],inhibits
same,Fas/Fas-L expression,[3],inhibits
